Experimental findings from patent US20140322216A1 (University of Pennsylvania, published 2014) are described below.

Assay [1] deals with T1, full-length glycosylated recombinant hGPC3 protein expressed in a murine myeloma cell line (human, UniProt P51654 25-559, limits assumed).
T1 construct: Bought protein; also called rhGPC3; full length hGPC3 protein expressed by mammalian cells
Put plainly: direct ELISA on rhGPC3 coated at 1 ug/ml. Here is the method: (§1) FIG. 4A depicts the results of immunoblot analysis of binding of scFv to rhGPC3. The antigens including rhGPC3 and GST protein were spotted onto cellulose membrane (10 ng/each). After the blocking step the membrane were incubated with the scFvs antibody in room temperature for 1 h. The binding of scFv to antigen was detected by incubation with mouse anti-V5 mAb following by infrared dye IR680-labeled anti-mouse antibodies. PBS was used as negative control. FIG. 4B depicts results of direct ELISA for affinity determination of scFv 3E11. Two different concentrations of rhGPC3 protein (0.5 and 1.0 ug/ml) were coated and incubated with serial diluted scFv 3E11. For detection, mouse-sourced anti-V5 mAb following HRP-conjugated anti-mouse antibody and SureBlue substrate (measured at 450 nm) was used. FIG. 4C depicts EC50 values for 5 candidate scFvs determined by direct ELISA, Assays were performed twice separately for each scFv.
(§2) After three washing steps with PBS/0.1% Tween-20 (PBST), 300 ul per well of blocking solution (2% milk in PBS pH 7) was added for 2 h at room temperature then washed three tinmes with PBST. Candidate scFv starting at 100 ug/ml were added with serial dilutions, incubated for Ih at room temperature followed by three washing steps with PBST, scFv binding was detected by adding anti-V5 HRP (Invitrmgen), washing ×4 with PBST, washing ×1 with PBS, then adding 50 ul/well of TMB peroxidase substrate (KPL, Gaithersburg Md.) plus peroxidase substrate solution B at 1:1 ratio, then the reaction was stopped using 50 ul of 0.5M H₂SO₄. OD450 was measured using a BioRad 680 microplate reader. For determination of functional affinity, half maximal binding concentration (EC50) was calculated with non-linear regression curve fit algorithm using the software program PRISM (GraphPad Software, San Diego, Calif.). rhGPC3 expressed in a murine myeloma cell line which was commercially obtained from R&D Systems (Minneapolis Minn.).

Assay [2] deals with T1, full-length glycosylated recombinant …. Put plainly: direct ELISA on rhGPC3 coated at 0.5 ug/ml. As for the experimental part: as §1, §2
The target is the same in assay [3]. Put plainly: direct ELISA, rhGPC3 coated at 1 ug/ml; rhGPC3 at 1 ug/ml. As for the experimental part:
as §1
(§3) After three washing steps with PBS/0.1% Tween-20 (PBST), 300 ul per well of blocking solution (2% milk in PBS pH 7) was added for 2 h at room temperature then washed three tinmes with PBST. […] OD450 was measured using a BioRad 680 microplate reader. […]
(An ELISA detects its analyte on a solid surface through an enzyme-linked reagent.)

Assay [4] has the same target. Put plainly: direct ELISA, rhGPC3 coated at 0.5 ug/ml; rhGPC3 at 0.5 ug/ml. As for the experimental part:
as §1, §3

In a further assay the target is GST protein (UniProt P08515 1-218 = GST). Put plainly: dot blot, 10 ng GST per spot, scFv detected with anti-V5 mAb and IR680 anti-mouse. As for the experimental part: as §1
GST protein, sequence (P08515 whole entry): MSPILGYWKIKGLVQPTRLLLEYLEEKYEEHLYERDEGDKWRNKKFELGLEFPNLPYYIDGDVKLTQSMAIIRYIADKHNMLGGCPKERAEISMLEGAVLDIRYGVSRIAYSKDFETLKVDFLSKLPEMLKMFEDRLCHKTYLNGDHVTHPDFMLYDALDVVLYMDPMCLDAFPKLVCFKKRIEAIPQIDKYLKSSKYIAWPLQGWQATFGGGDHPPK
For assay [5], the target named is T1, full-length glycosylated recombinant …. Put plainly: direct ELISA on rhGPC3, lower coat (open circles; key prints '0.5mg/ml', legend says 0.5 ug/ml). As for the experimental part: as §1, §3
Assay [6] has the same target. Put plainly: ELISA on rhGPC3 precoated at 1 ug/ml; drawn table headed 'Table 1. Kd of scFv candidates', column EC50 (nM).

T1 sequence (P51654 25-559 limits assumed): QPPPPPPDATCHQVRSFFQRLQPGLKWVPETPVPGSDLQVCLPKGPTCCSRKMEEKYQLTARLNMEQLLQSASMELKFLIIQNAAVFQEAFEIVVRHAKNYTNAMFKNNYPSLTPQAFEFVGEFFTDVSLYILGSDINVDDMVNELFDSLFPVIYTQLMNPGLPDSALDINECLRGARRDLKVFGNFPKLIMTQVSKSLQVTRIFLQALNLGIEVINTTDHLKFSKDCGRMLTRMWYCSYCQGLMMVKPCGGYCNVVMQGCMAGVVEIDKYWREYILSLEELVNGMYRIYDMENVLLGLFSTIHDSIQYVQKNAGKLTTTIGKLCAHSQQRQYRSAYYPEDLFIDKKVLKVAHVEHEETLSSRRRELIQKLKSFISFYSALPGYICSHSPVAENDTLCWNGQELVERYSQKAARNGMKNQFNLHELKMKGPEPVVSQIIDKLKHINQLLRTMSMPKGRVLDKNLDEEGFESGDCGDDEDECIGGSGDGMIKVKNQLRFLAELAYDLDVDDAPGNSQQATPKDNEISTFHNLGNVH

B1: scFv 3D8 (scFv, V domains shown)
VH: QVQLVQSGGGLAQPGGSLRLSCAASGSSFSTFVLSWVRQTPGKGLQWVSTISGSGTSTYYADSVKGRFTVSRDNAKNTQYLQMNSLRAEDTAIYYCARHKSFGVQWLWGQGALVVRLL
VL: VHIVMTQSPLSLPVTLGQPASISCWSSQSLVYGDGNTYLNWFQQRPGQSPRRLIYKVSNRDSGVPDRFSGSGSGTDFTLKISRVEAEDVGVYYCMQGTHWPPGTFGGGTKLEIK
notes: Human scFv secreted by yeast, one polypeptide with His and V5 tags
Broadly, the EC50 is the concentration giving half of the maximal effect. Take B1: the EC50 in assay [1] turned out to be 94.7 nM; in assay [2], 106 nM.

B2: scFv 3E11 (scFv, V domains shown)
VH: QVQLVQSGGGVVQPGRSLRLSCAASGFTFSSYGLHWVRQAPGKGLEWVAAISYDGSKKYYADSVKGRLTISRDNSKNTLYLQMNSLSPEDTALYFCARGWFVEPLSWGQGTLVTVSS
VL: not shown
notes: Human scFv secreted by yeast (p416-BCCR vector), one polypeptide; purified on nickel/anti-HIS and detected with anti-V5, so it carries His and V5 tags
Usually EC50 (read off the curve) stands for the concentration at which the effect is half-maximal. Take B2: the EC50 in assay [1] was 11.1 nM; in assay [2], 12 nM; in assay [3], 14 nM; in assay [4], 11 nM; in assay [6], 12 nM. Further, in the assay with GST protein, the binding result is listed as “no binding”. The “EC50 (read off the curve)” value in assay [5] was ~10 nM.

B3: scFv 4G5 (scFv, V domains shown)
VH: QVQLQESGLGLVKPSETLSLTCAVSGYSITSGYYWGWIRQTPGKGLEWIGRIYYGGSTHYNPSLQSRVTISVDTAKNQFSLKLSSVTAADTAVYYCARDRNYQSLSGYCLDYWGQGKVVTVSS
VL: EIVLTQSPGTLSVSPGERATLSCRASQSVSSHIAWYQQKPGQAPRLLIHGASTRATGVPARFSGSGSGTEFTLTISSLQSEDFAVYYCQQYNKWPPEYTFGQGTKLEIK
notes: as for B1
Consider B3, for which, in assay [2], the EC50 is 38.8 nM. In the assay with GST protein, the binding result is “no binding”.

B4: scFv 2G9 (scFv, V domains shown)
VH: QVQLQESGPGLVKPSETLSLSCTVSGGSISSSSYYWAWIRQPPGKGLEWIGNIYYSGSTYYNPSLKSRVTISVDTSKNQFSLKLSSVTAADTAVYYCARFPLIRGYRYRYDEYWGQGTLVTVSS
VL: DIVMTQSPLSLPVTPGEAASISCRSSQSLLHRDGYHYLNWFLQKPGQSPQLLIYLGSNRASGVPDRFSGSGSGTDFTLKISRVEAEDVGVYYCMQAPQTPRTLLGQGTKLEIK
notes: as for B1
Turning to B4, the EC50 in assay [1] came out at 111 nM. In addition, the binding result with GST protein is reported as “no binding”.
